From the DeepSol protein solubility set come the findings set out here.

The data set can be described thus: soluble on expression in E. coli; label from the status in PepcDB or PDB records.
In the case of “MSLYELQKVIKMDTETEDVPMFTVQNLPREDIYKTIGEMAIIVPMKNEKLHLVDGVLKAIPHKSPIIIVSNSKRKGPNRFKQEVDLVKHFCNLTHSKVIMIHQRDPGLAEAFRETGYEDILDEKGLVRSGKGEGMLIGIMLAKAIGAKYVGFVDADNYIPGAVNEYVKDYAAGFLMSESEYAMVRLHWRHKPKVSRGTLYFKKWGRVSEITNRYLNQLISEKTAFETTIMVTGNAGEHAMTMKLAEILPFSTGYSIEPYEIVYLLERFGSWENVEEFQDVFDQGIEIFQIETLNPHFHEDKGQEHVKEMVLLSLTTIYHSKLASERLKRQILEDLRMHGIIKEDEEPPKPRVMRPIKDIDIKKWMKTLESNQETLLRFDLEGHHHHHH”, the “soluble on expression in E. coli” value is on record as “not soluble”.
In the case of “MSLYYICPYFLDKNGHRVQKTMVGKVALDEQKLTPQKFSITYPLIINLQDEKVKTKVNEDIVNQVSELFKNQVLLTEKIDLSEVFGAYEIGVNRNYILSILFSIYTYMNRAAHGLTVYSSITVNTRTGKVYSFSDLFNPKMNYLGELTTIVKKYIKDNNIQLIEDYKGVTNDQEFYLTNDKLVLYYQVYAYTPYYYGLFRIPIPYTEIKNLLGPMSPINNLIEGHHHHHH” it was “not soluble”.
In the case of “MSMERSLEAWEEVQRHGQDLADRLAQGFTGLIHINPPSFPWPPNHHHLHKAKLFDLEFPTQHFSVIKDSRFSINQPINGVTAILDIGNKIGQAGVDFGAGLNVMVQQFFRRLPIPFLHEDNNKLVVSVDGDKSTRSHRAYVITKGDLGMATERLRDSGFSKTDDTASVTMSEEEVADSYLRAAGLLGRSKGTIDTSSSYDSRTNGMEHSLAARGDLWRVEASHSSSTASDGNSSLFLLQLGPLLFLRDSTLLLPLHLSKQHLLWYGYDRKSFMDLQFPNGQLTYVSGEGLTTSAFVPFCGGLLQAQGQYPGDMRFSYSCKNKCGTRITPMVHWPDKSFGLDLSQPLAWRRSGLLMKPTIQVSVCPTFGGSNPGIKAEVIHSLSDDLNLICGYALNAHPSAFASVAFGRSKWNGNIGRTGIVVRADTPLASIGQPSFSIQLNNAFEF” it was “soluble”.
In the case of “MSMSNGDAQKDTKTTAETKQTEQKTADSKKSNTQNSEFSLESQYFNDIKKVDGLETIQNPENILALVNKQYALPGNYEPSDLVIPDVEFSFEEKIQKRYIRKEAADALKTMFDAAKKEGYELAAVSGYRSYDRQKVIFDNEVSLKGERKAKEAVAYPGESEHQTGLAMDISSRSNGFELNEAFGSTADGKWVQDNAYKYGFIIRYPKNKEDITKYEYEPWHLRYVGKKAAKVIQDNDLTLEEYFEKVKKILEHHHHHH” it was “not soluble”.
Regarding “MSNALRGGPDFLLSVDSPVNIPSAFWSTLSPMTPRPRLLLTAALLALVPAAQAADLRLYPTLGEVTSQPLKVEGGAVTVPFPKADWAWVVPGSVRLLGVPVTRTRVTPGVNVLRAHEGEAVRVLRGGLNLKGTLADAEALLVQLDSGEYLTVRPDELAFSTRPPSSRDVADVKVTFETGGAGSANLLYQTRALSWKPRYELDASGDAATLRALAEIRNAGDQSFSGSTDLYAGDVRLVPENVPMPTLRWWENSPRPPAARAMPLSPRTALSRLSARLEHHHHHH”, the “soluble on expression in E. coli” value is given as “not soluble”.
“MSNDLTQITQRSLDEQVIGNLNRLQEQGLEMPPGYSPQNALKSAFFELTNNSGGNLLQLAANNPETKTSISNALLDMVIQGLSPAKKQCYFIKYGNKVQLMRSYFGTMAVLDRVTGGADITPVVVREGDVFEIAMDGPDLVVAKHETAFENLDNDIKAAYVVIKLANGKEVTTVMTKKQIDKSWSKAKTKNVQNDFPEEMAKRTVINRAAKYLINTSNDNDLFVQAAKDTLENEFERKDVTPEREEQAAVLEEKLFSNNIKAVDQENENERITRVADVPEQPDIEQAKPIEKDNLTKVADQILEEPVQETLDVMAGYETNQKESEADVSTIEEDDYPF”: the “soluble on expression in E. coli” value is “not soluble”.
For “MSNEEIKNKDEQLQQDAVETEAEVVGTDADIDWNQAADEIDEKEAKIAQLEAALLVSEERVKEQQDSVLRARAEVENMRRRSEQEVDKARKFALSRFAEELLPVIDNLERAIQAADGEVEAIKPLLEGVELTHKTFVDTIAKFGLKEINPHGEVFNPEFHQAMSIQESAEHEPNTVMFVMQKGYELNGRVLRPAMVMVSK”, the “soluble on expression in E. coli” value is “not soluble”.
The same measure for “MSNHDQLHRYLFANHAVRGELVSVNETYQQVLANHDYPPAVQKLLGEMLVATSLLTATLKFDGDITVQLQGGDGPLTLAVINGNNRQEMRGVARVKGEISDDSTLQEMVGNGYLVITITPAQGERYQGVVALEGETIAACLENYFMQSEQLPTRLFIRTGHVADKAAAGGMLLQVLPAQERNEDEFDHLAQLTATIKAEELFTLPANEVLYRLYHQEEVTLYEPQNVSFRCTCSRQRCADALVTLADDDVTEMLEQDGNIDMHCEYCGNHYLFDAVDIATLKNGNSASSEQIH”: “not soluble”; for “MSNPLAVDVPTFTKLHNVAQWLSQQPPSPRLFDQKENGFSQNFQPFLKTVNSCTIPDDLHEEMMRLKRKENAFKTALCKTFQLTRACSYGEQCKFAHSVEELQLKQKNRGVNHPKYKTVLCDNFSRTGHCKYGTKCQFIHRAVEPTPAQNPLMPQFSSWFAPSSGLSREFLDNFGASASSSSTDFS”: “not soluble”.
The same measure for “MSNTIRLSGIAYESLVNGPGIRRVFFSQGCKHNCIGCFNPDTHDFNGGEERDIEELIKDLADNPFIDGVTFSGGDPLEQANKFIYIAKAARELGLNIWSYTGYKFEYLLEHANEFNKWKEYLENIDVLVDGKFDINKKEDGLKFRGSSNQRIINVKESLKEGKVIELEFLEHHHHHH”: “not soluble”; for “MSNTLNHTSSRQIVRHYTHSQKRCKHLMQYFVSANGLFELKVKIYAFLFSMILEGKCRSVSIIADISCFFLFHFHAIRNAFYSIHPTYRAEGENERLTLLLIAQGYALSL”: “not soluble”.
In the case of “MSNTTGQWCDGNSVELLINGEDFYARVFECIRAARKEVLIETFIIFEDRIGEGLQQALLQAAANGAKVVVTVDDYGTSDLSSVFVKTMIDAGIQIQLFDPRPRFMGMRTNLFRRLHRKVVVIDGELGFIGGINYSVDHMTDTGVTAKQDYAVLVRGPIVGDIHHSALNMLSKVVRDKLPPIALKLDRAGDASMLLAER” it was “not soluble”.
For the sequence “MSNVLTEIDSQYPYMTKNEKKIAKFILNSPQKVIKMRSQDLASLLDISTSSVIRFSKKITDGGFHDLKINISKYVPKASSIYNVELMNNESTESLRTKLHTRTTRALNHANNELNDKTIDQICHCLKRSETIFIYGFGASFVVATDLYQKLSRIGLNIQLVQETHIFATLLATHNSNDSVILITNNGTQSEMQSMVKVIDDYHIPIITITSTRDNPVAQASNIVLTYGKTDENEMHMGATTSLFAQMFTIDILYYRYVALNYHASLDFITQSKMALDNYRKHLSNINFKH”, the “soluble on expression in E. coli” value is recorded as “not soluble”.
The same measure for “MSPAYLCARPRTRASVTFRPTCGVNLPFHADRARTVSTSTNSATVLWLGYQAPNSISTAVSGAVANHAAKDLQKFQTALQSRNPDQRKVVIGYSYGSTVAGKAASSSELDVRARHFRGDGYSIALNNAVEIKGLEHHHHHH”: “not soluble”.
On to “MSPILAKNIVYVAQIKGQITSYTYDQFDRYITIAEQDNAEAIIIELDTPGGRADAMMNIVQRIQQSKIPVIIYVYPPGASAASAGTYIALGSHLIAMAPGTSIGACRPILGYSQNGSIIEAPPKITNYFIAYIKSLAQESGRNATIAEEFITKDLSLTPEEALKYGVIEVVARDINELLKKSNGMKTKIPVNGRYVTLNFTNVEVRYLAPSFKDKLISYITDLEHHHHHH”, for which the “soluble on expression in E. coli” value is reported as “soluble”.
The same measure for “MSPLNFTHILTQTVDELSESESYKGLFHQHKDGEPLPSPRVLCDVIELARSILFPGYYGNSTVNSRTINYHIGVNVEKLFNLLTEQILAGLCFGNGDRCDECTEAKREEAARLAAKFISKLPHLRRVLATDVEAAYNGDPAAQSFGEVIFCYPAIKAISNYRIAHELLELGVPLIPRIITEMAHSETGIDIHPGARIGTHFTIDHGTGVVIGATSIIGNNVKLYQGVTLGARSFPLDADGKPIKGIPRHPILEDNVIVYSNATILGRITIGRDATVGGNIWVTENIPAGARIVQTKAKKLEHHHHHH”: “soluble”; for “MSQDIFTRDNLLRVENPNILVGESPVKYRVEEIYLDGKLKKAEDVDEEEKSYGIFMHSLVLSNYAEVMNVSHKKLDVIRDEKEKAIFYFTEEKGFDKSLIESIVPKVEAFSLNEDKLKVSTHIINEKMRIISRGTPDELLKRCSYILLDSKIVKKTRKIYREINRVLNDMINRCCTVYALAIKDVSKTDIITNVDAYIDGMTLVALIGMCRA”: “soluble”; for “MSQGQSKKLDVTVEQLRSIYHQFHDILEEKTDLHLPKKEYDDDAVRREVQIQLQEFLLSAMTMASKSLEVVNADTVGKTVKQLIMESQEKYMEPFDLDLNEQVRKMYQEWEDETVKVAQLRQTGPAKINEVYNNSKDEYLAQLDGRIGVLQARMMQQQSADHDDSTDDADDHINWEHIKQDYVASLNELYQTQQDLPKVRYNVEKVKRLMDFLEED”: “soluble”.
The same measure for “MSQIMYNYPAMMAHAGDMAGYAGTLQSLGADIASEQAVLSSAWQGDTGITYQGWQTQWNQALEDLVRAYQSMSGTHESNTMAMLARDGAEAAKWGG”: “soluble”; for “MSQKTEQDDIPLADDDDTVTIISGGKTPRAAQPLPKEEPPEDPEEKARMITQVLELQNTLDDLSQRVESVKEESLKLRSENQVLGQYIQNLMSSSSVFQSSQPSRPKQ”: “soluble”.
As to “MSQLLQDYLNWENYILRRVDFPTSYVVEGEVVRIEAMPRLYISGMGGSGVVADLIRDFSLTWNWEVEVIAVKDYFLKARDGLLIAVSYSGNTIETLYTVEYAKRRRIPAVAITTGGRLAQMGVPTVIVPKASAPRAALPQLLTAALHVVAKVYGIDVKIPEGLEPPNEALIHKLVEEFQKRPTIIAAESMRGVAYRVKNEFNENAKIEPSVEILPEAHHNWIEGSERAVVALTSPHIPKEHQERVKATVEIVGGSIYAVEMHPKGVLSFLRDVGIASVKLAEIRGVNPLATPRIDALKRRLQ”, the “soluble on expression in E. coli” value is “soluble”.
The same measure for “MSQNDLNKEKALVVFSGGQDSTTCLFYAKKHFKEVELVTFNYGQRHDKEIEVAKKIAKEQNLKHHILDMSLLSQLTPNALTQHELSIEDNDDGIPNTFVPARNLLFLSFAGALAYQIHAKHIITGVCETDFSGYPDCRDSFIKSMNVTLSLSMDKDFVIHTPLMWLDKAQTWALSDKLGVLDYIRHNTLTCYNGIIGDGCGECPACHLRARGLKHYLEHKGEE”: “not soluble”; for “MSQNLFNVEDYRKLAQKRLPKMVYDYLEGGAEDEYGVKHNRDVFQQWRFKPKRLVDVSRRSLQAEVLGKRQSMPLLIGPTALNGALWPKGDLALARAATKAGIPFVLSTASNMSIEDLARQCDGDLWFQLYVIHREIAQGMVLKALHTGYTTLVLTTDVAVNGYRERDLHNRFKIPPFLTLKNFEGIDLGKMDKANLEMQAALMSRQMDASFNWEALRWLRDLWPHKLLVKGLLSAEDADRCIAEGADGVILSNHGGRQLDCAISPMEVLAQSVAKTGKPVLIDSGFRRGSDIVKALALGAEAVLLGRATLYGLAARGETGVDEVLTLLKADIDRTLAQIGCPDITSLSPDYLQNEGVTNTAPVDHLIGKGTHAHHHHHH”: “soluble”.
“MSQPESPEQRRTAILATAERILRSGSPLTLGKVAQEVGISRTALYRYVSGIDEIIETLATKDFPHWLTSLRSAMAAAPTPKQRALCWAIESIKLGRETDHAWLATLSSLNLSENCRNAIASEHSKIDQLLRVELAQLGTPHIELTVATVRAVVMTAIQTPSSTEADDYFTATISAIIDASC”: the “soluble on expression in E. coli” value is given as “not soluble”.
Turning to “MSQQVTMSFSVVPQAKTKDVYSVVDKAIEVVQQSGVRYEVGAMETTLEGELDVLLDVVKRAQQACVDAGAEEVITSIKIHYRPSTGVTIDEKVWKYRDEYAKPEAI”, the “soluble on expression in E. coli” value is “soluble”.
